Results from the supplement of paper PMC5998384.

Assays:
HeLa Kyoto [1] = assay: solubility in G1/S (NP-40 vs SDS abundance) (log2 ratio); higher = more soluble; conditions: cell cycle stage: G1/S
HeLa Kyoto [2] = assay: solubility change mitosis vs G1/S (difference of NP-40 vs SDS log2 ratios) (log2 ratio difference); higher = more soluble in mitosis
HeLa Kyoto [3] = assay: melting temperature (median over replicates), in situ; higher = more thermally stable
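Wherever melting temperature (median over replicates), in situ is given: HeLa Kyoto cells synchronized by double thymidine or nocodazole block, proteins quantified by TMT10plex mass spectrometry, three independent biological replicates.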
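Wherever solubility change mitosis vs G1/S (difference of NP-40 vs SDS log2 ratios) is given: synchronized HeLa Kyoto cells (double thymidine block for G1/S, nocodazole release for mitosis), protein amounts in NP-40 versus SDS lysates quantified by mass spectrometry, three biological replicates.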
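Wherever solubility in G1/S (NP-40 vs SDS abundance) is given: HeLa Kyoto cells arrested at G1/S by double thymidine block, proteins quantified by TMT10plex mass spectrometry in mild NP-40 versus SDS extracts, three biological replicates.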

Row | Sequence | solubility in G1/S (log2) (HeLa Kyoto [1]) | solubility change mitosis (log2) (HeLa Kyoto [2]) | melting temperature (HeLa Kyoto [3]; cell cycle stage: G1/S) [°C] | melting temperature (HeLa Kyoto [3]; cell cycle stage: mitosis) [°C]
1 | MAFTNYSSLNRAQLTFEYLHTNSTTHEFLFGALAELVDNARDADATRIDIYAERREDLRGGFMLCFLDDGAGMDPSDAASVIQFGKSAKRTPESTQIGQYGNGLKSGSMRIGKDFILFTKKEDTMTCLFLSRTFHEEEGIDEVIVPLPTWNARTREPVTDNVEKFAIETELIYKYSPFRTEEEVMTQFMKIPGDSGTLVIIFNLKLMDNGEPELDIISNPRDIQMAETSPEGTKPERRSFRAYAAVLYIDPRMRIFIHGHKVQTKRLSCCLYKPRMYKYTSSRFKTRAEQEVKKAEHVARIAEEKAREAESKARTLEVRLGGDLTRDSRVMLRQVQNRAITLRREADVKKRIKEAKQRALKEPKELNFVFGVNIEHRDLDGMFIYNCSRLIKMYEKVGPQLEGGMACGGVVGVVDVPYLVLEPTHNKQDFADAKEYRHLLRAMGEHLAQYWKDIAIAQRGIIKFWDEFGYLSANWNQPPSSELRYKRRRAMEIPTTIQCDLCLKWRTLPFQLSSVEKDYPDTWVCSMNPDPEQDRCEASEQKQKVPLGTFRKDMKTQEEKQKQLTEKIRQQQEKLEALQKTTPIRSQADLKKLPLEVTTRPSTEEPVRRPQRPRSPPLPAVIRNAPSRPPSLPTPRPASQPRKAPVISSTPKLPALAAREEASTSRLLQPPEAPRKPANTLVKTASRPAPLVQQLSPSLLPNSKSPREVPSPKVIKTPVVKKTESPIKLSPATPSRKRSVAVSDEEEVEEEAERRKERCKRGRFVVKEEKKDSNELSDSAGEEDSADLKRAQKDKGLHVEVRVNREWYTGRVTAVEVGKHVVRWKVKFDYVPTDTTPRDRWVEKGSEDVRLMKPPSPEHQSLDTQQEGGEEEVGPVAQQAIAVAEPSTSECLRIEPDTTALSTNHETIDLLVQILRNCLRYFLPPSFPISKKQLSAMNSDELISFPLKEYFKQYEVGLQNLCNSYQSRADSRAKASEESLRTSERKLRETEEKLQKLRTNIVALLQKVQEDIDINTDDELDAYIEDLITKGD [MORC2] | -0.0374 | -0.0838 | 48.1 | 48.6
2 | MAGSPELVVLDPPWDKELAAGTESQALVSATPREDFRVRCTSKRAVTEMLQLCGRFVQKLGDALPEEIREPALRDAQWTFESAVQENISINGQAWQEASDNCFMDSDIKVLEDQFDEIIVDIATKRKQYPRKILECVIKTIKAKQEILKQYHPVVHPLDLKYDPDPAPHMENLKCRGETVAKEISEAMKSLPALIEQGEGFSQVLRMQPVIHLQRIHQEVFSSCHRKPDAKPENFITQIETTPTETASRKTSDMVLKRKQTKDCPQRKWYPLRPKKINLDT [NSL1] | 0.0226 | -0.0661 | 50.2 | 49.9
3 | MAHRLQIRLLTWDVKDTLLRLRHPLGEAYATKARAHGLEVEPSALEQGFRQAYRAQSHSFPNYGLSHGLTSRQWWLDVVLQTFHLAGVQDAQAVAPIAEQLYKDFSHPCTWQVLDGAEDTLRECRTRGLRLAVISNFDRRLEGILGGLGLREHFDFVLTSEAAGWPKPDPRIFQEALRLAHMEPVVAAHVGDNYLCDYQGPRAVGMHSFLVVGPQALDPVVRDSVPKEHILPSLAHLLPALDCLEGSTPGL [HDHD3] | 0.0599 | 0.0289 | 53.9 | 54.8
4 | MALITLRKNLYRLSDFQMHRALAALKNKPLNHVHKVVKERLCPWLCSRQPEPFGVKFHHAHCKKFHSKNGNDLHPLGGPVFSQVSDCDRLEQNVKNEESQMFYRRLSNLTSSEEVLSFISTMETLPDTMAAGALQRICEVEKKDGDQGLPKEILENSIFQALCFQFEKEPSQLSNTSLVTALQALILLHVDPQSSLLLNLVAECQNRLRKGGMEVRNLCILGESLITLHSSGCVTLELIINQLQGEKLETFTPEDIVALYRILQACTEKVDEHQTFLNKINNFSLSIVSNLSPKLISQMLTALVVLDQSQAFPLIIKLGKYVVRHVPHFTNEELRRVLEAFIYFGHHDTFFTKALEHRVAAVCLTLDPEVVCRVMEYCSRELILSKPILNAVAETFVCQTEKFSPRQISALMEPFGKLNYLPPNASALFRKLENVLFTHFNYFPPKSLLKLLHSCSLNECHPVNFLAKIFKPLFLQRLQGKESHLDTLSRAQLTQLFLASVLECPFYKGPKLLPKYQVKSFLTPCCSLETPVDSQLYRYVKIGLTNLLGARLYFAPKVLTPYCYTIDVEIKLDEEGFVLPSTANEDIHKRIALCIDGPKRFCSNSKHLLGKEAIKQRHLQLLGYQVVQIPYHEIGMLKSRRELVEYLQRKLFSQNTVHWLQE [FASTKD3] | -0.00458 | -0.151 | – | 47.8
5 | MALLAEHLLKPLPADKQIETGPFLEAVSHLPPFFDCLGSPVFTPIKADISGNITKIKAVYDTNPAKFRTLQNILEVEKEMYGAEWPKVGATLALMWLKRGLRFIQVFLQSICDGERDENHPNLIRVNATKAYEMALKKYHGWIVQKIFQAALYAAPYKSDFLKALSKGQNVTEEECLEKIRLFLVNYTATIDVIYEMYTQMNAELNYKV [GLTP] | -0.139 | -0.117 | – | 53.3
6 | MAMSFEWPWQYRFPPFFTLQPNVDTRQKQLAAWCSLVLSFCRLHKQSSMTVMEAQESPLFNNVKLQRKLPVESIQIVLEELRKKGNLEWLDKSKSSFLIMWRRPEEWGKLIYQWVSRSGQNNSVFTLYELTNGEDTEDEEFHGLDEATLLRALQALQQEHKAEIITVSDGRGVKFF [VPS25] | -0.0882 | -0.086 | 51.2 | 51.3
7 | MAMVVSTWRDPQDEVPGSQGSQASQAPPVPGPPPGAPHTPQTPGQGGPASTPAQTAAGGQGGPGGPGSDKQQQQQHIECVVCGDKSSGKHYGQFTCEGCKSFFKRSVRRNLSYTCRANRNCPIDQHHRNQCQYCRLKKCLKVGMRREAVQRGRMPPTQPTHGQFALTNGDPLNCHSYLSGYISLLLRAEPYPTSRFGSQCMQPNNIMGIENICELAARMLFSAVEWARNIPFFPDLQITDQVALLRLTWSELFVLNAAQCSMPLHVAPLLAAAGLHASPMSADRVVAFMDHIRIFQEQVEKLKALHVDSAEYSCLKAIVLFTSDACGLSDVAHVESLQEKSQCALEEYVRSQYPNQPTRFGKLLLRLPSLRTVSSSVIEQLFFVRLVGKTPIETLIRDMLLSGSSFNWPYMAIQ [NR2F2] | -0.00984 | -0.152 | – | 50.3
8 | MAQEFVNCKIQPGKVVVFIKPTCPYCRRAQEILSQLPIKQGLLEFVDITATNHTNEIQDYLQQLTGARTVPRVFIGKDCIGGCSDLVSLQQSGELLTRLKQIGALQ [GLRX] | 0.253 | 0.0467 | 54.7 | 53.4
9 | MAQRLLLRRFLASVISRKPSQGQWPPLTSRALQTPQCSPGGLTVTPNPARTIYTTRISLTTFNIQDGPDFQDRVVNSETPVVVDFHAQWCGPCKILGPRLEKMVAKQHGKVVMAKVDIDDHTDLAIEYEVSAVPTVLAMKNGDVVDKFVGIKDEDQLEAFLKKLIG [TXN2] | 0.576 | 0.017 | 53.5 | 52.9
10 | MAQSINITELNLPQLEMLKNQLDQEVEFLSTSIAQLKVVQTKYVEAKDCLNVLNKSNEGKELLVPLTSSMYVPGKLHDVEHVLIDVGTGYYVEKTAEDAKDFFKRKIDFLTKQMEKIQPALQEKHAMKQAVMEMMSQKIQQLTALGAAQATAKA [PFDN5] | -0.425 | 0.784 | 54.4 | 53.1
11 | MARDLIGPALPPGFKARGTAEDEERDPSPVAGPALPPNYKSSSSDSSDSDEDSSSLYEEGNQESEEDDSGPTARKQRKNQDDDDDDDDGFFGPALPPGFKKQDDSPPRPIIGPALPPGFIKSTQKSDKGRDDPGQQETDSSEDEDIIGPMPAKGPVNYNVTTEFEKRAQRMKEKLTKGDDDSSKPIVRESWMTELPPEMKDFGLGPRTFKRRADDTSGDRSIWTDTPADRERKAKETQEARKSSSKKDEEHILSGRDKRLAEQVSSYNESKRSESLMDIHHKKLKSKAAEDKNKPQERIPFDRDKDLKVNRFDEAQKKALIKKSRELNTRFSHGKGNMFL [GPALPP1] | 0.0784 | 0.245 | 55.1 | 56.1
12 | MASPAASSVRPPRPKKEPQTLVIPKNAAEEQKLKLERLMKNPDKAVPIPEKMSEWAPRPPPEFVRDVMGSSAGAGSGEFHVYRHLRRREYQRQDYMDAMAEKQKLDAEFQKRLEKNKIAAEEQTAKRRKKRQKLKEKKLLAKKMKLEQKKQEGPGQPKEQGSSSSAEASGTEEEEEVPSFTMGR [PRKRIP1] | 0.499 | 0.169 | 53.3 | 53.6
13 | MASQGRRRRPLRRPETVVPGEATETDSERSASSSEEEELYLGPSGPTRGRPTGLRVAGEAAETDSEPEPEPEPTAAPRDLPPLVVQRESAEEAWGTEEAPAPAPARSLLQLRLAESQARLDHDVAAAVSGVYRRAGRDVAALASRLAAAQAAGLAAAHSVRLARGDLCALAERLDIVAGCRLLPDIRGVPGTEPEKDPGPRA [BLOC1S3] | 0.568 | 0.0331 | 52.6 | 54.9
14 | MASSAASSEHFEKLHEIFRGLHEDLQGVPERLLGTAGTEEKKKLIRDFDEKQQEANETLAEMEEELRYAPLSFRNPMMSKLRNYRKDLAKLHREVRSTPLTATPGGRGDMKYGIYAVENEHMNRLQSQRAMLLQGTESLNRATQSIERSHRIATETDQIGSEIIEELGEQRDQLERTKSRLVNTSENLSKSRKILRSMSRKVTTNKLLLSIIILLELAILGGLVYYKFFRSH [VTI1B] | 0.392 | 0.188 | 53.5 | 52.5
15 | MASSASARTPAGKRVINQEELRRLMKEKQRLSTSRKRIESPFAKYNRLGQLSCALCNTPVKSELLWQTHVLGKQHREKVAELKGAKEASQGSSASSAPHSVKRKAPDADDQDVKRAKATLVPQVQPSTSAWTTNFDKIGKEFIRATPSKPSGLSLLPDYEDEEEEEEEEEGDGERKRGDASKPLSDAQGKEHSVSSSREVTSSVLPNDFFSTNPPKAPIIPHSGSIEKAEIHEKVVERRENTAEALPEGFFDDPEVDARVRKVDAPKDQMDKEWDEFQKAMRQVNTISEAIVAEEDEEGRLDRQIGEIDEQIECYRRVEKLRNRQDEIKNKLKEILTIKELQKKEEENADSDDEGELQDLLSQDWRVKGALL [ZNF830] | 0.423 | 0.0142 | 56.2 | 54.4
16 | MASSFLPAGAITGDSGGELSSGDDSGEVEFPHSPEIEETSCLAELFEKAAAHLQGLIQVASREQLLYLYARYKQVKVGNCNTPKPSFFDFEGKQKWEAWKALGDSSPSQAMQEYIAVVKKLDPGWNPQIPEKKGKEANTGFGGPVISSLYHEETIREEDKNIFDYCRENNIDHITKAIKSKNVDVNVKDEEGRALLHWACDRGHKELVTVLLQHRADINCQDNEGQTALHYASACEFLDIVELLLQSGADPTLRDQDGCLPEEVTGCKTVSLVLQRHTTGKA [ACBD6] | 0.393 | 0.0566 | 48 | 49.2
17 | MASSLNEDPEGSRITYVKGDLFACPKTDSLAHCISEDCRMGAGIAVLFKKKFGGVQELLNQQKKSGEVAVLKRDGRYIYYLITKKRASHKPTYENLQKSLEAMKSHCLKNGVTDLSMPRIGCGLDRLQWENVSAMIEEVFEATDIKITVYTL [OARD1] | 0.299 | 0.139 | – | 50.5
18 | MASYFDEHDCEPSDPEQETRTNMLLELARSLFNRMDFEDLGLVVDWDHHLPPPAAKTVVENLPRTVIRGSQAELKCPVCLLEFEEEETAIEMPCHHLFHSSCILPWLSKTNSCPLCRYELPTDDDTYEEHRRDKARKQQQQHRLENLHGAMYT [RNF181] | 0.563 | 0.00514 | 54.8 | 55.8
